Source: patent US20070110757A1

The binders below were run against RSV F protein on respiratory syncytial virus (RSV-Long strain) (respiratory syncytial virus (Long strain)) (UniProt P12568) (assay: cell-based or functional assay).
RSV F protein on respiratory syncytial virus (RSV-Long strain) (respiratory syncytial virus (Long strain)), sequence (P12568 26-574): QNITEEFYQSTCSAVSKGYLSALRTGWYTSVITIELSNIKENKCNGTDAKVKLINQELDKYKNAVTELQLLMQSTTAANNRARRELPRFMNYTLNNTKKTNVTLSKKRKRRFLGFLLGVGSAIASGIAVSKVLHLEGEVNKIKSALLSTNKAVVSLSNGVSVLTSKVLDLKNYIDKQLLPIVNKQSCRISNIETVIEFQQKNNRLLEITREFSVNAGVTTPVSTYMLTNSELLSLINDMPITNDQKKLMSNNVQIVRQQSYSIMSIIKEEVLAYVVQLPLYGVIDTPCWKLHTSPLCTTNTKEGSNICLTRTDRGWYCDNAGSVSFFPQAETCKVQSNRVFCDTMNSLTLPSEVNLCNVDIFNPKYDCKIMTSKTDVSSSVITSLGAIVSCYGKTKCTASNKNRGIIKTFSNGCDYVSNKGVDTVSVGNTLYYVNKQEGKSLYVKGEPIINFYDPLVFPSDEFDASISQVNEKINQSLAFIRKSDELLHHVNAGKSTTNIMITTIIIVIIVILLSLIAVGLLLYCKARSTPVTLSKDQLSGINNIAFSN

Binder	Fold Difference (Control IC50) [fold]	Fold Difference (Curve IC50) [fold]	Mean IC50 (Control), RSV microneutralization [µg/mL]	Mean IC50 (Curve), RSV microneutralization [µg/mL]
A17d4(1) monoclonal antibody (antibody, V domains shown) VH: QVTLRESGPALVKPTQTLTLTCTFSGFSLSTAGMSVGWIRQPPGKALEWLADIWWDGKKSYNPSLKDRLTISKDTSKNQVVLKVTNMDPADTATYYCARDMIFNFYFDVWGQGTTVTVSS VL: DIQMTQSPSTLSASVGDRVTITCLPSSRVGYMHWYQQKPGKAPKLLIYDTMYQSSGVPSRFSGSGSGTEFTLTISSLQPDDFATYYCFQGSGYPFTFGGGTKVEIK	15	13	0.0354	0.0342
A8c7 monoclonal antibody (antibody, V domains shown) VH: QVTLRESGPALVKPTQTLTLTCTFSGFSLSTAGMSVGWIRQPPGKALEWLADIWWDDKKSYNPSLKDRLTISKDTSKNQVVLKVTNMDPADTATYYCARDMIFNWYFDVWGQGTTVTVSS VL: DIQMTQSPSTLSASVGDRVTITCSPSSRVGYMHWYQQKPGKAPKLLIYDTRYQSSGVPSRFSGSGSGTEFTLTISSLQPDDFATYYCFQGSGYPFTFGGGTKVEIK	14	13	0.0383	0.0337
A1e9 Fab fragment (Fab, V domains shown) VH: QVTLRESGPALVKPTQTLTLTCTFSGFSLSTAGMSVGWIRQPPGKALEWLADIWWDGKKHYNPSLKDRLTISKDTSKNQVVLKVTNMDPADTATYYCARDMIFNWYFDVWGQGTTVTVSS VL: DIQMTQSPSTLSASVGDRVTITCSLSSRVGYMHWYQQKPGKAPKLLIYDTFKLSSGVPSRFSGSGSGTEFTLTISSLQPDDFATYYCFQGSGYPFTFGGGTKVEIK	4	3	0.125	0.157
P12f4 Fab fragment (Fab, V domains shown) VH: QVTLRESGPALVKPTQTLTLTCTFSGFSLSTPGMSVGWIRQPPGKALEWLADIWWDGKKHYNPSLKDRLTISKDTSKNQVVLKVTNMDPADTATYYCARDMIFNFYFDVWGQGTTVTVSS VL: DIQMTQSPSTLSASVGDRVTITCSLSSRVGYMHWYQQKPGKAPKLLIYDTRGLPSGVPSRFSGSGSGTEFTLTISSLQPDDFATYYCFQGSGYPFTFGGGTKVEIK	15	10	0.0351	0.0464
A12a6 Fab fragment (Fab, V domains shown) VH: QVTLRESGPALVKPTQTLTLTCTFSGFSLSTAGMSVGWIRQPPGKALEWLADIWWDGKKDYNPSLKDRLTISKDTSKNQVVLKVTNMDPADTATYYCARDMIFNFYFDVWGQGTTVTVSS VL: DIQMTQSPSTLSASVGDRVTITCSASSRVGYMHWYQQKPGKAPKLLIYDTFKLSSGVPSRFSGSGSGTEFTLTISSLQPDDFATYYCFQGSGYPFTFGGGTKVEIK	17	16	0.031	0.0287
A13c4 Fab fragment (Fab, V domains shown) VH: QVTLRESGPALVKPTQTLTLTCTFSGFSLSTAGMSVGWIRQPPGKALEWLADIWWDGKKSYNPSLKDRLTISKDTSKNQVVLKVTNMDPADTATYYCARDMIFNFYFDVWGQGTTVTVSS VL: DIQMTQSPSTLSASVGDRVTITCSLSSRVGYMHWYQQKPGKAPKLLIYDTMYQSSGVPSRFSGSGSGTEFTLTISSLQPDDFATYYCFQGSGYPFTFGGGTKVEIK	21	17	0.0258	0.0264
P11d4 monoclonal antibody (antibody, V domains shown) VH: QVTLRESGPALVKPTQTLTLTCTFSGFSLSTPGMSVGWIRQPPGKALEWLADIWWDGKKHYNPSLKDRLTISKDTSKNQVVLKVTNMDPADTATYYCARDMIFNWYFDVWGQGTTVTVSS VL: DIQMTQSPSTLSASVGDRVTITCSPSSRVGYMHWYQQKPGKAPKLLIYDTMRLASGVPSRFSGSGSGTEFTLTISSLQPDDFATYYCFQGSGYPFTFGGGTKVEIK	19	21	0.0289	0.0217
P12f2 monoclonal antibody (antibody, V domains shown) VH: QVTLRESGPALVKPTQTLTLTCTFSGFSLSTPGMSVGWIRQPPGKALEWLADIWWDDKKHYNPSLKDRLTISKDTSKNQVVLKVTNMDPADTATYYCARDMIFNFYFDVWGQGTTVTVSS VL: DIQMTQSPSTLSASVGDRVTITCSLSSRVGYMHWYQQKPGKAPKLLIYDTFYLSSGVPSRFSGSGSGTEFTLTISSLQPDDFATYYCFQGSGYPFTFGGGTKVEIK	24	20	0.0223	0.0231
A13c4 monoclonal antibody (antibody, V domains shown) VH: QVTLRESGPALVKPTQTLTLTCTFSGFSLSTAGMSVGWIRQPPGKALEWLADIWWDGKKSYNPSLKDRLTISKDTSKNQVVLKVTNMDPADTATYYCARDMIFNFYFDVWGQGTTVTVSS VL: DIQMTQSPSTLSASVGDRVTITCSLSSRVGYMHWYQQKPGKAPKLLIYDTMYQSSGVPSRFSGSGSGTEFTLTISSLQPDDFATYYCFQGSGYPFTFGGGTKVEIK	14	12	0.0375	0.0376
P11d4 Fab fragment (Fab, V domains shown) VH: QVTLRESGPALVKPTQTLTLTCTFSGFSLSTPGMSVGWIRQPPGKALEWLADIWWDGKKHYNPSLKDRLTISKDTSKNQVVLKVTNMDPADTATYYCARDMIFNWYFDVWGQGTTVTVSS VL: DIQMTQSPSTLSASVGDRVTITCSPSSRVGYMHWYQQKPGKAPKLLIYDTMRLASGVPSRFSGSGSGTEFTLTISSLQPDDFATYYCFQGSGYPFTFGGGTKVEIK			> 1	> 1
P12f2 Fab fragment (Fab, V domains shown) VH: QVTLRESGPALVKPTQTLTLTCTFSGFSLSTPGMSVGWIRQPPGKALEWLADIWWDDKKHYNPSLKDRLTISKDTSKNQVVLKVTNMDPADTATYYCARDMIFNFYFDVWGQGTTVTVSS VL: DIQMTQSPSTLSASVGDRVTITCSLSSRVGYMHWYQQKPGKAPKLLIYDTFYLSSGVPSRFSGSGSGTEFTLTISSLQPDDFATYYCFQGSGYPFTFGGGTKVEIK	16	11	0.0326	0.0407
A8c7 Fab fragment (Fab, V domains shown) VH: QVTLRESGPALVKPTQTLTLTCTFSGFSLSTAGMSVGWIRQPPGKALEWLADIWWDDKKSYNPSLKDRLTISKDTSKNQVVLKVTNMDPADTATYYCARDMIFNWYFDVWGQGTTVTVSS VL: DIQMTQSPSTLSASVGDRVTITCSPSSRVGYMHWYQQKPGKAPKLLIYDTRYQSSGVPSRFSGSGSGTEFTLTISSLQPDDFATYYCFQGSGYPFTFGGGTKVEIK	34	3	0.157	0.177
P12f4 monoclonal antibody (antibody, V domains shown) VH: QVTLRESGPALVKPTQTLTLTCTFSGFSLSTPGMSVGWIRQPPGKALEWLADIWWDGKKHYNPSLKDRLTISKDTSKNQVVLKVTNMDPADTATYYCARDMIFNFYFDVWGQGTTVTVSS VL: DIQMTQSPSTLSASVGDRVTITCSLSSRVGYMHWYQQKPGKAPKLLIYDTRGLPSGVPSRFSGSGSGTEFTLTISSLQPDDFATYYCFQGSGYPFTFGGGTKVEIK	23	19	0.0235	0.0242
A1e9 monoclonal antibody (antibody, V domains shown) VH: QVTLRESGPALVKPTQTLTLTCTFSGFSLSTAGMSVGWIRQPPGKALEWLADIWWDGKKHYNPSLKDRLTISKDTSKNQVVLKVTNMDPADTATYYCARDMIFNWYFDVWGQGTTVTVSS VL: DIQMTQSPSTLSASVGDRVTITCSLSSRVGYMHWYQQKPGKAPKLLIYDTFKLSSGVPSRFSGSGSGTEFTLTISSLQPDDFATYYCFQGSGYPFTFGGGTKVEIK	8	7	0.0645	0.0625
A17d4(1) Fab fragment (Fab, V domains shown) VH: QVTLRESGPALVKPTQTLTLTCTFSGFSLSTAGMSVGWIRQPPGKALEWLADIWWDGKKSYNPSLKDRLTISKDTSKNQVVLKVTNMDPADTATYYCARDMIFNFYFDVWGQGTTVTVSS VL: DIQMTQSPSTLSASVGDRVTITCLPSSRVGYMHWYQQKPGKAPKLLIYDTMYQSSGVPSRFSGSGSGTEFTLTISSLQPDDFATYYCFQGSGYPFTFGGGTKVEIK	31	25	0.0171	0.0179
A12a6 monoclonal antibody (antibody, V domains shown) VH: QVTLRESGPALVKPTQTLTLTCTFSGFSLSTAGMSVGWIRQPPGKALEWLADIWWDGKKDYNPSLKDRLTISKDTSKNQVVLKVTNMDPADTATYYCARDMIFNFYFDVWGQGTTVTVSS VL: DIQMTQSPSTLSASVGDRVTITCSASSRVGYMHWYQQKPGKAPKLLIYDTFKLSSGVPSRFSGSGSGTEFTLTISSLQPDDFATYYCFQGSGYPFTFGGGTKVEIK	15	13	0.0354	0.0357
A4B4 monoclonal antibody (antibody, V domains shown) VH: QVTLRESGPALVKPTQTLTLTCTFSGFSLSTAGMSVGWIRQPPGKALEWLADIWWDDKKHYNPSLKDRLTISKDTSKNQVVLKVTNMDPADTATYYCARDMIFNFYFDVWGQGTTVTVSS VL: DIQMTQSPSTLSASVGDRVTITCSASSRVGYMHWYQQKPGKAPKLLIYDTFFLDSGVPSRFSGSGSGTEFTLTISSLQPDDFATYYCFQGSGYPFTFGGGTKVEIK	35	27	0.0154	0.0171
